In patent US20220112244A1 (DOMPE FARMACEUTICI S P A, published 2022):

How the values were obtained:
[1] = molecular target: T1, mouse IL-17A (mouse, UniProt Q62386 26-158); test: SPR, mouse IL-17A amine-coupled to the chip (3000 RU), peptide 62.5-1000 nM as analyte, Scatchard analysis of RU at equilibrium
T1 construct: also called mIL-17 Å; mIL17
T1 sequence (looked up): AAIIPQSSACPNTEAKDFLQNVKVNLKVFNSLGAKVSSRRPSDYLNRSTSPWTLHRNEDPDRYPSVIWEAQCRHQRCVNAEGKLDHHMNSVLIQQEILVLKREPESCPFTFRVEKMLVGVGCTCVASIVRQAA

[2] = molecular target: T2, IL-17A (agonist in the IL-17RA/IL17RC dimerization assay) (UniProt Q16552 24-155); test: cell-based or functional assay
[3] = molecular target: T1, mouse IL-17A; test: SPR on immobilised mouse IL-17A
[4] = molecular target: T2, IL-17A (agonist in the IL-17RA/IL17RC …); test: cell-based or functional assay; remark: listed apart in the source

T2 sequence (Q16552 24-155 limits assumed): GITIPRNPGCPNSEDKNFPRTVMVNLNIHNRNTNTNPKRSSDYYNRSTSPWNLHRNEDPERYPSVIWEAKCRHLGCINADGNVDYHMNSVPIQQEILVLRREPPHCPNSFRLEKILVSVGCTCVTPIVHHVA

## Ac-IHVTIPADLWDWINK-NH2 [High Affinity Peptide (HAP), peptide of SEQ ID NO: 1]
[1]
  Kd: 3700 nM

## Ac-VHVTIPADLWDWINK-NH2 (HAP with Ile 1 replaced by Val) [peptide of SEQ ID NO: 2]
[2]
  IC50, % inhibition of IL-17A-induced IL-17RA/IL17RC dimerization (PathHunter cytokine receptor assay): 191 nM
[3]
  fold affinity against SEQ ID NO: 1: 28 fold
[1]
  Kd: 130 nM
[4]
  IC50 in IL-17RA/IL7RC dimerization assay: < 200 nM
